Measurements taken from patent US20250034275A1 (CHIA TAI TIANQING PHARMACEUTICAL GROUP, published 2025).

T1: human Trop-2 (on the surface of human cell lines) (human, UniProt P09758 27-323)
T1 sequence: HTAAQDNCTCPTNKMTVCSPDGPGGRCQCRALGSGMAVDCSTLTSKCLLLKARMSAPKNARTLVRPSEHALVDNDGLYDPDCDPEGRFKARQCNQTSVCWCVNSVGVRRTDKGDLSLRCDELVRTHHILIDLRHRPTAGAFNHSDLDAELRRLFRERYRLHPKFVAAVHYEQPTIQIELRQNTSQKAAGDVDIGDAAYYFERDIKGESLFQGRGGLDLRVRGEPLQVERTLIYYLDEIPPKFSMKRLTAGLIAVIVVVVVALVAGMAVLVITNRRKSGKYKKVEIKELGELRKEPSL

T2: human Trop-2-His (human, UniProt P09758 27-274, limits assumed)
T2 construct: by analogy with the macaque construct it is probably the extracellular domain with a His tag; also called Trop-2-His protein
T2 sequence: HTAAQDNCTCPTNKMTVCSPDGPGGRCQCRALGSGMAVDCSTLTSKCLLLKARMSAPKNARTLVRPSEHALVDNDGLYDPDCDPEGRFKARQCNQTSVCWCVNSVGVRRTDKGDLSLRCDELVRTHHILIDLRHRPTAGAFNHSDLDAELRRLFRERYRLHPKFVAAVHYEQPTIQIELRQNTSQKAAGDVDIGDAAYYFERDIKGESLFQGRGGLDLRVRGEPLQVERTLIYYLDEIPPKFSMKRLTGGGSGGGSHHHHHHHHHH

T3: Macaque Trop-2-His (macaque, UniProt P09758 27-274 (human entry))
T3 construct: Extracellular domain of macaque Trop-2 recombinantly linked to His; also called monkey Trop-2-His protein; monkey Trop-2
T3 chain: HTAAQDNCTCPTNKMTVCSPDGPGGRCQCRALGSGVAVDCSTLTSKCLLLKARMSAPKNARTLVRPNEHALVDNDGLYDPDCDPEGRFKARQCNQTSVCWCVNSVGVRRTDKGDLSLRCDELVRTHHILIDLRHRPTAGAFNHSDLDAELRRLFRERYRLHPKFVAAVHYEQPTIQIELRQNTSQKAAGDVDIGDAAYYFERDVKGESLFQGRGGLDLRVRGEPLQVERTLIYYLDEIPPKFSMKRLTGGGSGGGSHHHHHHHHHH


Legend:
[1] = target: T1, human Trop-2 (on the surface of human …); test: cell-based or functional assay
[2] = target: T1, human Trop-2 (on the surface of human …); test: cell-based or functional assay; remark: listed apart in the source
[3] = target: T1, human Trop-2 (on the surface of human …); test: flow cytometry, HCC38 cells
Experimental: (§1) Tumor cells expressing Trop-2 were prepared into a cell suspension (0.5-1×10⁶ cells/mL) using the FACS buffer (Miltenyi Biotec, 130-091-221), and the cell suspension was added to a 96-well V-bottom plate at 100 μL/well. After centrifugation and removal of the supernatant, the test antibodies diluted with the FACS buffer to different concentrations (0.006 nM-100 nM) were each added at 50 μL/well. The mixture was incubated in the dark in a 4° C. refrigerator for 1 h. The plate was then washed 3 times with the FACS buffer by centrifugation at 300 g, and Alexa Fluor 488 goat anti-human IgG (H+L) (Bio-legend, 409304, 1:500 dilution) at working concentration was added. The mixture was incubated in the dark in a 4° C. refrigerator for 40 min. The plate was then washed 3 times with the FACS buffer by centrifugation at 300 g, the geometric mean fluorescence intensity (MFI) was measured on a Sartorius iQue3 flow cytometer, and the binding EC₅₀ values of the antibodies for tumor cells with different Trop-2 expression levels were calculated

[4] = target: T1, human Trop-2 (on the surface of human …); test: flow cytometry, HCC1806 cells
Experimental: as §1

[5] = target: T1, human Trop-2 (on the surface of human …); test: flow cytometry, OVCAR-3 cells
Experimental: as §1

[6] = target: T2, human Trop-2-His; test: ELISA, plate-coated human Trop-2-His
Experimental: (§2) After the liquid was discarded, 2% BSA (SIGMA, B2064-100G) diluted with PBS was added at 300 μL/well for blocking, and the mixture was incubated at 37° C. for 2 h. After the blocking was completed, the blocking buffer was discarded, the plate was washed 3 times with PBST buffer (pH 7.4 PBS containing 0.1% tween-20), the antibody solution diluted in a gradient was added at 100 μL/well, and the mixture was incubated at 37° C. for 1 h. After the incubation was completed, the plate was washed 3 times with PBST, the goat anti-human IgG (H+L) (JacksonImmunoResearch, 109-035-098, 1:5000 dilution) was added at 100 μL/well, and the mixture was incubated at 37° C. for 1 h. After the plate was washed 3 times with PBST, a TMB chromogenic substrate (TIANGEN, PA107-01) was added at 100 μL/well. The mixture was incubated at room temperature for 10-15 min, and then 1 M H₂SO₄ was added at 50 μL/well to terminate the reaction. The absorbance values at 450 nm were taken using a microplate reader. The binding curves of antibodies for antigen were fitted using software, and the EC₅₀ values were calculated.

[7] = target: T3, Macaque Trop-2-His; test: ELISA, plate-coated macaque Trop-2-His
Experimental: as §2, with “times with the PBST buffer” for “times with PBST buffer”

[8] = target: T2, human Trop-2-His; test: SPR (Biacore 8K), antibody captured, Trop-2-His as analyte
Source text: The affinity of antibodies for human Trop-2-His was detected in the form of antibody capturing. The antibody was affinity-captured by a CM5 (Cat. #29149603, GE) biosensor chip conjugated with an anti-human IgG antibody (from human antibody capture kit, Cat. #29234600, GE), then the antigen human Trop-2-His flowed on the surface of the chip, and a Biacore 8K instrument was used for detecting reaction signals in real time to obtain association and dissociation curves. After dissociation was completed for each assay cycle, the chip was washed clean and regenerated with a regeneration buffer, 3M MgCl₂ (from human antibody capture kit, Cat. #29234600, GE). The association and dissociation curves were collected by Biacore 8K Control Software 3.0 in real time, and the data were analyzed by Biacore Insight Evaluation Software 3.0. The data were fitted using a Langmuir 1:1 model after double subtraction (namely, in each cycle, the contrast channel signal was subtracted from the experimental channel signal, and the sample signal was subtracted from the blank signal), and the association rate constant Ka, the dissociation rate constant Kd, and the equilibrium constant KD were calculated.

Row | ADCC reporter (Jurkat-CD16a v158-NFAT-luciferase), target cell H322, EC50 [1] | ADCC reporter (Jurkat-CD16a v158-NFAT-luciferase), target cell HCC1806, EC50 [1] | EC50 [3] | EC50 [4] | EC50 [5] | EC50 [6] | EC50 [7] | Kd [8] | koff [8] | kon [8] | Binder | ADCC, PBMC killing (LDH), H322, EC50 [2] | ADCC, PBMC killing (LDH), H322, Maximum killing (%) [2] | ADCC, PBMC killing (LDH), HCC1806, EC50 [2] | ADCC, PBMC killing (LDH), HCC1806, Maximum killing (%) [2]
1 | 100 pM | 230 pM | 890 pM | 760 pM | 900 pM | 55 pM | 56 pM | 444 pM | 0.000194 s⁻¹ | 436000 M⁻¹ s⁻¹ | hz-Ab35-2.1 (antibody, human IgG1, kappa, V domains shown, Humanized antibody) VH: QVQLVQSGAEVKKPGASVKVSCKASGYTFTSSDINWVRQRPGQGLEWMGWIYPRDGSKKYAQKFQGRVTMTVDTSTSTVYMELSSLRSEDTAVYYCATRFATVVSNYGLDPWGQGTLVTVSS VL: EIVLTQSPATLSLSPGERATLSCSASSSVNYIYWYQRKPGQAPRLLIYDTSNLASGIPARFSGSGSGTDYTLTISSLEPEDFAVYYCQQWNSYPLTFGQGTKVEIKR | 20 pM | 51.3% | 30 pM | 35.2%
2 | 150 pM | 260 pM | 660 pM | 1180 pM | 800 pM | 223 pM | 81 pM | 1330 pM | 0.000611 s⁻¹ | 460000 M⁻¹ s⁻¹ | hz-Ab21-2.2 (antibody, human IgG1, kappa, V domains shown, Humanized antibody) VH: EVQLVESGGGLVKPGGSLRLSCAASGFTLRNYGVHWVRQAPGKGLEWVGVIWSSGTTDYNAAFISRFTISKDNSKNTLYLQMNSLKTEDTAVYYCTRDGDYDYYTMDYWGQGTLVTVSS VL: EIVLTQSPATLSLSPGERATLSCRASKSVSTSAYSYIHWYQQKPGQPPRLLIYLTSNLESGIPARFSGSGSGTDFTLTISSLEPEDFAVYYCQHSRELPYTFGQGTKVEIKR | 70 pM | 51.6% | 180 pM | 40.6%

Second part, the binder before the results:

Row | Binder | ADCC reporter (Jurkat-CD16a v158-NFAT-luciferase), target cell H322, EC50 [1] | ADCC reporter (Jurkat-CD16a v158-NFAT-luciferase), target cell HCC1806, EC50 [1] | EC50 [3] | EC50 [4] | EC50 [5] | EC50 [6] | EC50 [7] | Kd [8] | koff [8] | kon [8] | ADCC, PBMC killing (LDH), H322, EC50 [2] | ADCC, PBMC killing (LDH), H322, Maximum killing (%) [2] | ADCC, PBMC killing (LDH), HCC1806, EC50 [2] | ADCC, PBMC killing (LDH), HCC1806, Maximum killing (%) [2]
3 | hz-Ab35-2.3 (antibody, human IgG1, kappa, V domains shown, Humanized antibody) VH: QVQLVQSGAEVKKPGASVKVSCKASGYTFTSSDINWVRQRPGQGLEWMGWIYPRDGSKKYNEKFKGRVTMTVDTSTSTVYMELSSLRSEDTAVYYCATRFATVVSNYGLDPWGQGTLVTVSS VL: EIVLTQSPATLSLSPGERATLSCSASSSVNYIYWYQRKPGQAPRLLIYDTSNLASGIPARFSGSGSGTDYTLTISSLEPEDFAVYYCQQWNSYPLTFGQGTKVEIKR | 110 pM | 210 pM | 910 pM | 610 pM | 740 pM | 65 pM | 31 pM | 675 pM | 0.000281 s⁻¹ | 416000 M⁻¹ s⁻¹ | 20 pM | 50.3% | 30 pM | 35.7%
4 | hz-Ab35-2.2 (antibody, human IgG1, kappa, V domains shown, Humanized antibody) VH: QVQLVQSGAEVKKPGASVKVSCKASGYTFTSSDINWVRQRPGQGLEWMGWIYPRDGSKKYNEKFKGRVTMTVDTSTSTVYMELSSLRSEDTAVYYCARRFATVVSNYGLDPWGQGTLVTVSS VL: EIVLTQSPATLSLSPGERATLSCSASSSVNYIYWYQRKPGQAPRLLIYDTSNLASGIPARFSGSGSGTDYTLTISSLEPEDFAVYYCQQWNSYPLTFGQGTKVEIKR | 110 pM | 260 pM | 910 pM | 580 pM | 880 pM | 54 pM | 50 pM | 8820 pM | 0.00357 s⁻¹ | 405000 M⁻¹ s⁻¹ | 10 pM | 51.4% | 20 pM | 35.9%
5 | hz-Ab21-2.1 (antibody, human IgG1, kappa, V domains shown, Humanized antibody) VH: EVQLVESGGGLVKPGGSLRLSCAASGFTLRNYGVHWVRQAPGKGLEWVGVIWSSGTTDYAAPVKGRFTISKDNSKNTLYLQMNSLKTEDTAVYYCTRDGDYDYYTMDYWGQGTLVTVSS VL: EIVLTQSPATLSLSPGERATLSCRASKSVSTSAYSYIHWYQQKPGQPPRLLIYLTSNLESGIPARFSGSGSGTDFTLTISSLEPEDFAVYYCQHSRELPYTFGQGTKVEIKR | 210 pM | 390 pM | 640 pM | 630 pM | 680 pM | 214 pM | 64 pM | 1380 pM | 0.000559 s⁻¹ | 404000 M⁻¹ s⁻¹ | 20 pM | 44.5% | 120 pM | 32.2%
